The series is described as follows: self-splicing fitness, log relative to wild type (ln ratio); higher = more splicing; Tetrahymena group I intron in knt gene, E. coli kanamycin selection, DiMSum; sequences stand for … in CUCUCU…GGAGGGAAAAGUUAUCAGGCAUGCACCUGGUAGCUAGUCUUUAAACCAAUAGAUUGCAUCGGUUUAAAAGGCAAGACCGUCAAAUUGCGGGAAAGGGGUCAACAGCCGUUCAGUACCAAGUCUCAGGGGAAACUUUGAGAUGGCCUUGCAAAGGGUAUGGUAAUAAGCUGACGGACAUGGUCCUAACCACGCAGCCAAGUCCUAAGUCAACAGAUCUUCUGUUGAUAUGGAUGCAGUUCACAGACUAAAUGUCGGUCGGGGAAGAUGUAUUCUUCUCAUAAGAUAUAGUCGGACCUCUCCUUAAUGGGAGCUAGCGGAUGAAGUGAUGCAACACUGGAGCCGCUGGGAACUAAUUUGUAUGCGAAAGUAUAUUGAUUAGUUUUGGAGUACUCGUGGUCG
The method in brief: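 DiMSum derived fitness as the error-weighted combination of fold changes across replicates, kanamycin versus no kanamycin, normalised to wild type. E. coli BL21(DE3) held the library, which randomised all eight P1ex-region intron nucleotides within the knt kanamycin-resistance gene on pET-22b(+). Six replicate transformations grew overnight at 37°C or 30°C on LB agar with or without 25 μg/mL kanamycin, also containing 100 μg/mL carbenicillin, 50 μM IPTG and 0.2% rhamnose, and pooled colonies were amplicon-sequenced on an Illumina HiSeq 2500.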

± gives the uncertainty stated by the source.

Turning to GCCAAGCAAUAUUACGGAAA, the “self-splicing fitness (ln)” value (30 °C) is -1.46 ± 0.16 and the “self-splicing fitness (ln)” value (37 °C) was -1.14 ± 0.13.

With AGAGAGCAAUAUUACGCUUU, the “self-splicing fitness (ln)” value is, setting by setting: (30 °C) -3.54 ± 0.41; (37 °C) -2.52 ± 0.45.

Consider GGACAGCAAUAUUACGUCAG, for which the “self-splicing fitness (ln)” value was -0.431 ± 0.068 (30 °C) and -0.434 ± 0.084 (37 °C).

On to UUGCAGCAAUAUUACGCUUC, for which the “self-splicing fitness (ln)” value (30 °C) was -3.76 ± 0.35 and the “self-splicing fitness (ln)” value (37 °C) is -2.76 ± 0.25. For the sequence CGUCAGCAAUAUUACGCAGG, the “self-splicing fitness (ln)” value runs as follows: (30 °C) -3.85 ± 0.3; (37 °C) -1.69 ± 0.18. On to CACUAGCAAUAUUACGUCGU, for which the “self-splicing fitness (ln)” value is -3.39 ± 0.11 (30 °C) and -1.76 ± 0.094 (37 °C). The matching figures for GCCCAGCAAUAUUACGUUAA: -1.6 ± 0.097 and -1.01 ± 0.089. Take CCUAAGCAAUAUUACGUAAU: the “self-splicing fitness (ln)” value is -2.38 ± 0.18 (30 °C) and -0.984 ± 0.29 (37 °C). As for UACUAGCAAUAUUACGAAUG, the “self-splicing fitness (ln)” value runs as follows: (30 °C) -0.956 ± 0.083; (37 °C) 0.689 ± 0.12. The matching figures for CGCGAGCAAUAUUACGCCAG: -2.74 ± 0.18 and -2.75 ± 0.24. As for ACAGAGCAAUAUUACGAGUA, the “self-splicing fitness (ln)” value (37 °C) is -2.34 ± 0.27. For CACCAGCAAUAUUACGCUAG, the “self-splicing fitness (ln)” value was -1.49 ± 0.068 (30 °C) and -0.153 ± 0.079 (37 °C).

For GAACAGCAAUAUUACGUAGG, the “self-splicing fitness (ln)” value is, setting by setting: (30 °C) -2.12 ± 0.057; (37 °C) -0.569 ± 0.066.

For the sequence AUCAAGCAAUAUUACGGGGG, the “self-splicing fitness (ln)” value runs as follows: (30 °C) -3.79 ± 0.22; (37 °C) -2.64 ± 0.15.

On to UAUCAGCAAUAUUACGACGA, for which the “self-splicing fitness (ln)” value by setting is: (30 °C) -0.537 ± 0.1; (37 °C) -0.425 ± 0.11. For AAUUAGCAAUAUUACGCAUA, the “self-splicing fitness (ln)” value is -1.59 ± 0.15 (30 °C) and -2.07 ± 0.15 (37 °C). On the same counts, the results for AUCGAGCAAUAUUACGCAAG are -3.22 ± 0.43 and -1.72 ± 0.26. In the case of ACUAAGCAAUAUUACGAACA, the “self-splicing fitness (ln)” value by setting is: (30 °C) -1.86 ± 0.18; (37 °C) -0.417 ± 0.19. Take ACAUAGCAAUAUUACGGUGC: the “self-splicing fitness (ln)” value reads like this: (30 °C) -3.84 ± 0.25; (37 °C) -2.54 ± 0.21. Consider GUUGAGCAAUAUUACGGGGC, for which the “self-splicing fitness (ln)” value (30 °C) was -2.38 ± 0.19 and the “self-splicing fitness (ln)” value (37 °C) was -2.84 ± 0.29.

On to ACUUAGCAAUAUUACGGUCG, for which the “self-splicing fitness (ln)” value reads like this: (30 °C) -2.52 ± 0.17; (37 °C) -1.35 ± 0.2. Consider GGUUAGCAAUAUUACGGUAU, for which the “self-splicing fitness (ln)” value by setting is: (30 °C) -1.55 ± 0.11; (37 °C) -0.531 ± 0.11. Consider CAACAGCAAUAUUACGAUGG, for which the “self-splicing fitness (ln)” value (30 °C) was -0.426 ± 0.056 and the “self-splicing fitness (ln)” value (37 °C) turned out to be 0.257 ± 0.075. On the same counts, the results for CUUCAGCAAUAUUACGCCAU are -4.2 ± 0.3 and -2.02 ± 0.23. The matching figures for UCAUAGCAAUAUUACGGUGU: -3.51 ± 0.21 and -1.27 ± 0.13. On to GCUUAGCAAUAUUACGGAAA, for which the “self-splicing fitness (ln)” value runs as follows: (30 °C) -2.37 ± 0.25; (37 °C) -0.752 ± 0.17. On to AGAAAGCAAUAUUACGGGAC, for which the “self-splicing fitness (ln)” value (30 °C) was -3.06 ± 0.26 and the “self-splicing fitness (ln)” value (37 °C) was -2 ± 0.32. With CAUUAGCAAUAUUACGGCAU, the “self-splicing fitness (ln)” value reads like this: (30 °C) -2.99 ± 0.21; (37 °C) -1.66 ± 0.17. In the case of ACGUAGCAAUAUUACGUUUA, the “self-splicing fitness (ln)” value (30 °C) was -2.63 ± 0.15 and the “self-splicing fitness (ln)” value (37 °C) is -2.73 ± 0.17. Turning to GAUUAGCAAUAUUACGGUAA, the “self-splicing fitness (ln)” value was -1.83 ± 0.23 (30 °C) and -1.5 ± 0.17 (37 °C).

Regarding GGCGAGCAAUAUUACGCCAA, the “self-splicing fitness (ln)” value (37 °C) is -2.45 ± 0.49. On to UCAUAGCAAUAUUACGGCCC, for which the “self-splicing fitness (ln)” value (37 °C) was -1.11 ± 0.43. Turning to UGGUAGCAAUAUUACGCCUA, the “self-splicing fitness (ln)” value stood at 0.144 ± 0.11 (30 °C) and 0.464 ± 0.12 (37 °C). For the sequence GCCUAGCAAUAUUACGAGGG, the “self-splicing fitness (ln)” value (30 °C) is -3.68 ± 0.21 and the “self-splicing fitness (ln)” value (37 °C) is -1.6 ± 0.15.
